Results as given in patent US20040229289A1, “Antigen binding peptides (abtides) from peptide libraries” (Cytogen Corporation, priority 1994, published 2004).
Where a SMILES comes first, the peptide text is derived from it. The star is where a group is joined. DTPA = O=C(O)CN(CCN(CC(=O)O)CC(=O)O)CCN(CC(=O)O)CC(=O)*

What was measured:
[1] = test system: human prostate carcinoma LNCaP xenograft tumors; test: in vivo; design: species or system SCID mice; details: mouse, iv
Description: (§1) Male SCID mice (C.B-17/Icr Tac—SCID mice) were purchased from Fox Chase (Philadelphia, Pa.) or. Taconic Farms (Germantown, N.Y.), were housed in sterilized cages with filter bonnets, and were given autoclaved laboratory rodent chow (Purina, St. Louis, Mo.), and filtered tap water ad libitum.
(§2) 1×10^7 cells of the human prostate tumor line LNCaP (Horoszewicz et al., 1987, Anticancer Res. 7:927-936) were injected subcutaneously (s.c.) into the left rear flank of the mice. The cells were growing in exponential phase before harvesting and had been resuspended in 0.2 mL of sterile saline. Tumors were grown in the mice for 2-3 months before abtides were injected into the mice.
(§3) For biodistribution studies, abtides were modified at their amino termini with the chelator diethylene-triamine-pentaacetic acid anhydride (DTPA-A) (Sigma, St. Louis, Mo.). Approximately 2 mg of each abtide was initially dissolved in an appropriate volume of 0.1% acetic acid and then 1 mL of 0.1 M sodium bicarbonate, pH 8.0, was added. Two mg of DTPA-A was suspended in 100 AL of dimethylsulfoxide (DMSO), and 10 μL of the abtide solution added to this DTPA-A suspension. […]
(§4) In one experiment, abtide clone 14-DPTA-^111In (see Table 2) was injected intravenously (i.v.) into two groups of mice bearing measurable LNCaP xenografts. […] Thus, the total injected dose of radioactivity was about 120-140×10^6 cpm.
(§5) The first group of mice was sacrificed 2 hours after injection of the abtide and tissues were dissected for analysis. […] Dissected tissues were weighed and the amount of ^111In in them was determined by gamma counting. The cpm per gram of each tissue was calculated by dividing the cpm of ^111In found in the tissue by the weight in grams of the tissue. […]
(§6) In another experiment, abtide clone 17-DPTA-^111In (see Table 2) was injected intravenously into four SCID mice bearing measurable LNCaP xenografts. […] Thus, the total injected dose of radioactivity was about 100-110×10^6 cpm. […]

in vivo = test: in vivo; design: species or system SCID mice; details: male, C.B-17/Icr Tac-SCID, mouse, iv, 2 ug, total radioactivity
Description: as §1, §2, §3, §4, §5, §6

[2] = test system: biotinylated 7E11-9.5 mimetope peptide; test: Dot blot: spotted 7E11-C5 abtides probed with biotinylated mimetope peptide; format: binding; details: 1 μL of 1 mg/mL abtide spotted on nitrocellulose; 0.1 mg/mL mimetope; FIG. 4
Description: In some cases, these abtides were used in a dot blot experiment. In those cases, 1 μL of a 1 mg/mL solution of the 38-residue abtides was spotted onto nitrocellulose (0.2 μm or 0.45 μm, Schleicher & Schuell, Keene, NH) strips or circles. After drying (about 1/2 hour), the nitrocellulose was blocked for 1 hour in a solution of 1% BSA in PBS. The nitrocellulose was then allowed to incubate in approximately 5 mL of a solution of 0.1 mg/mL of a biotinylated 7E11-9.5 mimetope peptide (biotin-LYANPGMYSRLHSPA). This mimetope peptide was one of those described in Section 6.1.1 above that were synthesized based upon the nine peptides that were identified in the screening of Section 6.1.1 above. After an hour, the nitrocellulose was washed approximately 5 times with a solution of 1% BSA in PBS. A 1:2000 dilution of Extravidin-Alkaline Phosphatase (4,250 units/mL) (Sigma, St. Louis, Mo.) in PBS was then added and allowed to incubate for 1 hour, after which the nitrocellulose was again washed extensively. Finally, a solution of 5-bromo-4-chloro-3-indolyl phosphate (0.15 mg/mL) and nitro blue tetrazolium (0.3 mg/mL) (Sigma, St Louis, Mo.) (BCIP/NBT) was added as an enzyme substrate. Color was allowed to develop […].
In FIG. 4, the 7E11-C5 abtides known as clone 14, clone 17, clone 15, clone 16, and clone 13 were tested for their ability to bind the biotinylated 7E11-9.5 mimetope peptide. Also tested, as a positive control, was the monoclonal antibody 7E11-C5. 7E11-C5 was spotted onto the region marked 351 in FIG. 4.

[3] = target: T1, native 7E11-C5 antigen in LNCaP lysates (Homo sapiens, UniProt Q04609); test: Sandwich assay: capture of antigen from LNCaP cell lysate; format: binding; details: detection with biotinylated 7E11-C5, FIG. 6
T1 construct: endogenous in cells; host or cells: LNCaP cell lysate
Description: A sandwich assay using the LNCaP antigen was performed. The wells of a microtiter plate were coated with either monoclonal antibody 7E11-C5, the clone 14 7E11-C5 abtide, or, as a negative control, BSA. Coating and washing was as for-the assay described in Section 6.1.2.2. One hundred microliters of a lysate of LNCaP cells was added to the wells. The LNCaP lysate was prepared as described in PCT publication WO 94/18318, dated Aug. 18, 1994. Following capture of the lysate on the plate, 100 μL of a 5 μg/mL solution of biotinylated 7E11-CS monoclonal antibody was added to each well. Following incubation and washing as in Section 6.1.2.2, a 1:2000 dilution of Extravidin-Alkaline Phosphatase (4,250 units/mL) (Sigma, St. Louis, Mo.) in PBS was added to each well and incubated for 1 hour at room temperature. Following incubation, the wells were washed four times with 1% BSA in PBS and then twice in PBS. One hundred microliters of a 1 mg/mL solution of p-nitrophenyl phosphate in diethanol amine (DEA) buffer (both from Kirkegaard & Perry Laboratories, Gaithersburg, Md.) was then added and, after incubation at room temperature for 15-30 minutes, the absorbance of the solutions in the wells was read at 405 nm.
This was a surprising discovery and would not have been predicted by those skilled in the art. […]

T1 sequence (Q04609 whole entry): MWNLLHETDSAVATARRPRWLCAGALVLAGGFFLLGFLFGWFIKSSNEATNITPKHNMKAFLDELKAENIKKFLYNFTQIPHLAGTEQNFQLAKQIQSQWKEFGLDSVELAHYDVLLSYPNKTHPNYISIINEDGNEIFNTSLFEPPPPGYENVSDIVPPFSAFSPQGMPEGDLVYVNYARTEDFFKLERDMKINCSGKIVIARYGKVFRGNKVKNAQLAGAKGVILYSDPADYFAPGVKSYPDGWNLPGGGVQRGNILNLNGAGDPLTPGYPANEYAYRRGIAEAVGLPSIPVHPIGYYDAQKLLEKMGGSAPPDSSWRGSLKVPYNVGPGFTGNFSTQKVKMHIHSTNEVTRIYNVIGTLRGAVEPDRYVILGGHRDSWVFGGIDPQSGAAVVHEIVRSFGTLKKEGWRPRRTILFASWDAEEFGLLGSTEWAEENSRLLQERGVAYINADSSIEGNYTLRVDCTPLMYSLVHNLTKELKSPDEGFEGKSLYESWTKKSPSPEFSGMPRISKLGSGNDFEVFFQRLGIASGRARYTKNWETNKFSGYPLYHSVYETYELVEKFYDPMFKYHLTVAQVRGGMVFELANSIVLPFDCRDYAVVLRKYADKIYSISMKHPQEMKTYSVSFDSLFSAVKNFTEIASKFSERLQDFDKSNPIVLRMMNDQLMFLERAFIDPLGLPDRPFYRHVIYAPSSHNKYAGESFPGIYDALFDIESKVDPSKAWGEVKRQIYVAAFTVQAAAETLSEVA

binding of biotinylated 7E11-9.5 mimetope peptide in dot blot [2] | Compound | localization to LNCaP xenograft tumors [1] | tissue to tissue ratio at 2 h (in vivo) | recognition (capture) of native 7E11-C5 antigen [3]
– | CC[C@H](C)[C@H](NC(=O)CNC(=O)CN(CCN(CCN(CC(=O)O)CC(=O)O)CC(=O)O)CC(=O)O)C(=O)N[C@H](C(=O)N[C@@H](CC(N)=O)C(=O)N[C@@H](C)C(=O)N[C@@H](CC(N)=O)C(=O)N[C@@H](CC(=O)O)C(=O)N1CCC[C@H]1C(=O)N[C@@H](CC(C)C)C(=O)N1CCC[C@H]1C(=O)N[C@@H](Cc1ccccc1)C(=O)N[C@@H](Cc1c[nH]c2ccccc12)C(=O)N[C@@H](Cc1ccccc1)C(=O)N[C@@H](CCSC)C(=O)N[C@@H](CO)C(=O)N1CCC[C@H]1C(=O)N[C@@H](Cc1ccc(O)cc1)C(=O)N[C@H](C(=O)N1CCC[C@H]1C(=O)NCC(=O)N1CCC[C@H]1C(=O)N[C@@H](C)C(=O)N1CCC[C@H]1C(=O)N[C@H](C(=O)N[C@@H](CC(=O)O)C(=O)N[C@H](C(=O)N[C@@H](CC(N)=O)C(=O)N[C@@H](C)C(=O)N[C@@H](CO)C(=O)N[C@@H](CCCNC(=N)N)C(=O)N[C@@H](C)C(=O)N[C@@H](CC(C)C)C(=O)N[C@H](C(=O)N[C@@H](CO)C(=O)N[C@@H](CC(N)=O)C(=O)N[C@@H](CCC(=O)O)C(=O)N[C@@H](CO)C(=O)NCC(N)=O)C(C)C)[C@@H](C)CC)[C@@H](C)CC)[C@@H](C)O)[C@@H](C)CC [abtide clone 14-DPTA-^111In, metal not drawn] ({DTPA}-GIINANDPLPFWFMSPYTPGPAPIDINASRALVSNESG-NH2; N-terminus and C-terminus assumed) | specific localization to the tumor | 1.85 | –
bound the mimetope | GIINANDPLPFWFMSPYTPGPAPIDINASRALVSNESG [clone 14] | – | – | capable of recognizing the native 7E11-C5 antigen in LNCaP lysates
